According to US20080112961A1 (MacroGenics, published 2008):

Columns and labels:
[1] = molecular target: T1, soluble monomeric FcγRIIIA, the extracellular region of FcγRIIIA joined to the linker-AVITAG sequence (UniProt P08637 17-208); experiment: BIAcore, Ab on BSA-FITC
T1 construct: extracellular domain; also called FcRIIIA

[2] = molecular target: T2, FcγRIIB-Fc fusion protein, soluble dimer: extracellular domain of FcγRIIB fused to the hinge-CH2-CH3 domain … (human, UniProt P31994 43-217, limits assumed); experiment: ELISA
T2 construct: extracellular domain; also called FcRIIB-Fc; 2bfcagl; not shown: human IgG2 hinge-CH2-CH3
T2 sequence (looked up): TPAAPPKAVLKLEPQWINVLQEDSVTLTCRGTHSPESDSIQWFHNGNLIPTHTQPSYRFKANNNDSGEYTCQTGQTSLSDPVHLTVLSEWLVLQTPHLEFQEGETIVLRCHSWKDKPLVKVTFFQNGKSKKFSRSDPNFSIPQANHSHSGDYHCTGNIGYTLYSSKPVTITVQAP

[3] = molecular target: T2, FcγRIIB-Fc fusion protein, soluble …; experiment: BIAcore, Ab on BSA-FITC
Method: (§1) Following this, the unreacted active esters were “capped off” with an injection of 1M Et-NH2. Once a suitable surface was prepared, ch 4-4-20 antibodies carrying the Fc mutations were passed over the surface by one minute injections of a 20 μg/mL solution at a […] flow rate. […] Next, dilution series of the receptor (FcγRIIIA and FcγRIIB-Fc fusion protein) in HBS-P buffer (10 mM HEPES, 150 mM NaCl, 0.005% Surfactant P20, 3 mM EDTA, pH 7.4) were injected onto the surface at 100 μL/min Antibody regeneration between different receptor dilutions was carried out by single 5 second injections of 100 mM NaHCO₃ pH 9.4; 3M NaCl.
(§2) Binding curves for two different concentrations (200 nM and 800 nM for FcγRIIIA and 200 nM and 400 nM for FcγRIIB fusion protein) were aligned and responses adjusted to the same level of captured antibodies, and the reference curves were subtracted from the experimental curves. Association and dissociation phases were fitted separately. Dissociation rate constant was obtained for interval 32-34 sec of the dissociation phase; association phase fit was obtained by a 1:1 Langmuir model and base fit was selected on the basis Rₘₐₓ and chi² criteria.

[4] = molecular target: T2, FcγRIIB-Fc fusion protein, soluble …; experiment: BIAcore, ch4-4-20
Method: as §1, §2
(§3) Secondary Screen of Mutants via BIAcore: Mutants that were selected in the above screens were then analyzed by BIAcore to determine the kinetic parameters for binding FcγRIIIA (158V) and FcγRIIB. The method used was similar to that disclosed in Section 7.1, supra.

[5] = molecular target: T3, FcγRIIIA (form not stated) (UniProt P08637 17-208, limits assumed); experiment: ELISA
T3 construct: also called FcγRIIIA (ELISA)

[6] = molecular target: T4, FcγRIIB (form not stated) (UniProt P31994 43-217, limits assumed); experiment: ELISA
T4 construct: also called FcγRIIB (ELISA)
T4 sequence (looked up): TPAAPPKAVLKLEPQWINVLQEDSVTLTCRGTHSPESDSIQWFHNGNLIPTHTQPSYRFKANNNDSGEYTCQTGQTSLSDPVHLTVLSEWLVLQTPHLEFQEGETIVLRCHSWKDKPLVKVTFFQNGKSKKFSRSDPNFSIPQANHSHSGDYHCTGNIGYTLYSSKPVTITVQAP

[7] = molecular target: T3, FcγRIIIA (form not stated); experiment: ELISA; remark: listed apart in the source
[8] = molecular target: T4, FcγRIIB (form not stated); experiment: ELISA; remark: listed apart in the source
[9] = molecular target: T5, FcγRIIIA 158V, soluble monomer (extracellular region joined to linker-AVITAG) (UniProt P08637 17-208, limits assumed); experiment: BIAcore, ch4-4-20
T5 construct: extracellular domain; also called 3aV158; 3A 158V
Method: as §1, §2, §3

T3 sequence (P08637 17-208 F176V limits assumed, form in doubt): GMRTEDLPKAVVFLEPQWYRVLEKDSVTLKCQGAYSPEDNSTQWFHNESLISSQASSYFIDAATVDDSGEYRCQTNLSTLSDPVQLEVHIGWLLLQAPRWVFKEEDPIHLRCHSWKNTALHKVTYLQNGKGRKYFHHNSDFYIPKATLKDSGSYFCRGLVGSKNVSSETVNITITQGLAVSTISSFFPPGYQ
T5 sequence (P08637 17-208 F176V limits assumed): as the sequence (P08637 17-208 F176V limits assumed, form in doubt) above

B1: ch4-4-20 Mut23 (antibody)
chain 1: not shown
chain 2: DVVMTQTPLSLPVSLGDQASISCRSSQSLVHSNGNTYLRWYLQKPGQSPKVLIYKVSNRFSGVPDRFSGSGSGTDFTLKISRVEAEDLGVYFCSQSTHVPWTFGGGTKLEIKRTVAAPSVFIFPPSDEQLKSGTASVVCLLNNFYPREAKVQWKVDNALQSGNSQESVTEQDSKDSTYSLSSTLTLSKADYEKHKVYACEVTHQGLSSPVTKSFNRGEC
[1]
  Kd: 70.2 nM
  koff: 0.105 s⁻¹
  kon: 1.43e+06 M⁻¹ s⁻¹
[2]
  ELISA, OD: 0.1 OD
[3]
  Kd: 108 nM
  koff: 0.107 s⁻¹

B2: ch4-4-20 MgFc66 (A330V, V427M) (antibody)
chain 1: not shown
chain 2: DVVMTQTPLSLPVSLGDQASISCRSSQSLVHSNGNTYLRWYLQKPGQSPKVLIYKVSNRFSGVPDRFSGSGSGTDFTLKISRVEAEDLGVYFCSQSTHVPWTFGGGTKLEIKRTVAAPSVFIFPPSDEQLKSGTASVVCLLNNFYPREAKVQWKVDNALQSGNSQESVTEQDSKDSTYSLSSTLTLSKADYEKHKVYACEVTHQGLSSPVTKSFNRGEC
[4]
  Koff WT/Mut: 0.62 ratio

B3: ch4-4-20 G316D, A378V, D399E (antibody)
heavy: ASTKGPSVFPLAPSSKSTSGGTAALGCLVKDYFPEPVTVSWNSGALTSGVHTFPAVLQSSGLYSLSSVVTVPSSSLGTQTYICNVNHKPSNTKVDKKVEPKSCDKTHTCPPCPAPELLGGPSVFLFPPKPKDTLMISRTPEVTCVVVDVSHEDPEVKFNWYVDGVEVHNAKTKPREEQYNSTYRVVSVLTVLHQDWLNDKEYKCKVSNKALPAPIEKTISKAKGQPREPQVYTLPPSRDELTKNQVSLTCLVKGFYPSDIVVEWESNGQPENNYKTTPPVLESDGSFFLYSKLTVDKSRWQQGNVFSCSVMHEALHNHYTQKSLSLSPGK
[5]
  ELISA binding, fold vs Wt: 1.5 X
[6]
  ELISA binding, fold vs Wt: 14 X
[7]
  fold increase vs WT: 1.5 x
[8]
  fold increase vs WT: 14 x

B4: ch4-4-20 MgFc39 (E293V, Q295E, A327T) (antibody)
heavy: ASTKGPSVFPLAPSSKSTSGGTAALGCLVKDYFPEPVTVSWNSGALTSGVHTFPAVLQSSGLYSLSSVVTVPSSSLGTQTYICNVNHKPSNTKVDKKVEPKSCDKTHTCPPCPAPELLGGPSVFLFPPKPKDTLMISRTPEVTCVVVDVSHEDPEVKFNWYVDGVEVHNAKTKPRVEEYNSTYRVVSVLTVLHQDWLNGKEYKCKVSNKTLPAPIEKTISKAKGQPREPQVYTLPPSRDELTKNQVSLTCLVKGFYPSDIAVEWESNGQPENNYKTTPPVLDSDGSFFLYSKLTVDKSRWQQGNVFSCSVMHEALHNHYTQKSLSLSPGK
[5]
  ELISA binding, fold vs Wt: 1.4 X
[7]
  fold increase vs WT: 0.4 x
[4]
  Koff WT/Mut: 1.3 ratio
[9]
  Koff WT/Mut: 0.86 ratio

B5: ch4-4-20 Mut 10 (P396L, A330S, K288N) (antibody)
heavy: ASTKGPSVFPLAPSSKSTSGGTAALGCLVKDYFPEPVTVSWNSGALTSGVHTFPAVLQSSGLYSLSSVVTVPSSSLGTQTYICNVNHKPSNTKVDKKVEPKSCDKTHTCPPCPAPELLGGPSVFLFPPKPKDTLMISRTPEVTCVVVDVSHEDPEVKFNWYVDGVEVHNANTKPREEQYNSTYRVVSVLTVLHQDWLNGKEYKCKVSNKALPSPIEKTISKAKGQPREPQVYTLPPSRDELTKNQVSLTCLVKGFYPSDIAVEWESNGQPENNYKTTPLVLDSDGSFFLYSKLTVDKSRWQQGNVFSCSVMHEALHNHYTQKSLSLSPGK
notes: also called Mut10(0225); K288N, A330S, P396L
[2]
  ELISA, OD: 1.2 OD
[3]
  Kd: 41.3 nM
  koff: 0.05 s⁻¹

B6: ch4-4-20 MgFc43 (Y319F, P352L, P396L) (antibody)
heavy: ASTKGPSVFPLAPSSKSTSGGTAALGCLVKDYFPEPVTVSWNSGALTSGVHTFPAVLQSSGLYSLSSVVTVPSSSLGTQTYICNVNHKPSNTKVDKKVEPKSCDKTHTCPPCPAPELLGGPSVFLFPPKPKDTLMISRTPEVTCVVVDVSHEDPEVKFNWYVDGVEVHNAKTKPREEQYNSTYRVVSVLTVLHQDWLNGKEFKCKVSNKALPAPIEKTISKAKGQPREPQVYTLLPSRDELTKNQVSLTCLVKGFYPSDIAVEWESNGQPENNYKTTPLVLDSDGSFFLYSKLTVDKSRWQQGNVFSCSVMHEALHNHYTQKSLSLSPGK
[4]
  Koff WT/Mut: 2.29 ratio
[9]
  Koff WT/Mut: 1.23 ratio

B7: ch4-4-20 K334E, T359N, T366S (antibody)
heavy: ASTKGPSVFPLAPSSKSTSGGTAALGCLVKDYFPEPVTVSWNSGALTSGVHTFPAVLQSSGLYSLSSVVTVPSSSLGTQTYICNVNHKPSNTKVDKKVEPKSCDKTHTCPPCPAPELLGGPSVFLFPPKPKDTLMISRTPEVTCVVVDVSHEDPEVKFNWYVDGVEVHNAKTKPREEQYNSTYRVVSVLTVLHQDWLNGKEYKCKVSNKALPAPIEETISKAKGQPREPQVYTLPPSRDELNKNQVSLSCLVKGFYPSDIAVEWESNGQPENNYKTTPPVLDSDGSFFLYSKLTVDKSRWQQGNVFSCSVMHEALHNHYTQKSLSLSPGK
[5]
  ELISA binding, fold vs Wt: 1.5 X
[7]
  fold increase vs WT: 1.5 x
[8]
  binding result: binds

B8: ch4-4-20 MgFc63 (S298N, K360R, N361D) (antibody)
heavy: ASTKGPSVFPLAPSSKSTSGGTAALGCLVKDYFPEPVTVSWNSGALTSGVHTFPAVLQSSGLYSLSSVVTVPSSSLGTQTYICNVNHKPSNTKVDKKVEPKSCDKTHTCPPCPAPELLGGPSVFLFPPKPKDTLMISRTPEVTCVVVDVSHEDPEVKFNWYVDGVEVHNAKTKPREEQYNNTYRVVSVLTVLHQDWLNGKEYKCKVSNKALPAPIEKTISKAKGQPREPQVYTLPPSRDELTRDQVSLTCLVKGFYPSDIAVEWESNGQPENNYKTTPPVLDSDGSFFLYSKLTVDKSRWQQGNVFSCSVMHEALHNHYTQKSLSLSPGK
[4]
  Koff WT/Mut: 0.67 ratio
